Test results taken from paper PMC12851578.
“And” between values parts separate entries of the source, which are not always exact repeats. Equal entries are not always repeated.

Biological target: actin purified from muscle (F-actin) (Bos taurus (ground beef)) (UniProt P68138)
Assay: co-sedimentation

With “Lfat1 ABD [change], recombinant (from UniProt Q5ZVQ3 138-355) (domain or fragment)” the Kd was 19.1 µM and 16.3 µM and 63.7 µM.
